This test deals with Transforming growth factor β (human (endogenous in PANC-1)).

Ends that are not written are not given here. * marks the point of attachment. DOTA = O=C(O)CN1CCN(CC(=O)O)CCN(CC(=O)*)CCN(CC(=O)O)CC1; PEG (n : 3) = short polyethylene glycol linker, n = 3

Chain of Transforming growth factor β (human (endogenous in PANC-1)) (P01137 279-390): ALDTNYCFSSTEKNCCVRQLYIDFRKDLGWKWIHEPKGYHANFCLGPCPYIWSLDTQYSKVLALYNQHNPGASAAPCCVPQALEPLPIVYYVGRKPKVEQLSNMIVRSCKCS

B1: [^68Ga]Ga-DOTA-P144 (peptide)
peptide: {DOTA-PEG (n : 3)}-TSLDASIWAMMQNA
modifications: also: [68Ga] chelated by the DOTA
For B1, the tumor uptake (%ID/g-mean) of [^68Ga]Ga-P144 by microPET at 1 h in PANC-1 tumor-bearing mice, unblocked group (n = 4) stood at 5.36 %ID/g-mean.

The record behind these values is PMC10540840, “PET imaging with [^68Ga]-labeled TGFβ-targeting peptide in a mouse PANC-1 tumor model” (Frontiers in Oncology, 2023).
